In patent US20190328788A1 (GENAGON THERAPEUTICS, published 2019):
One block for each binder: values may come before it. Ends that are not written are not given here.

Assays:
Assay in all cases: ELISA, peptide on streptavidin plate, ligand 100 ng/ml
[1] = target: T1, transforming growth factor-beta 3 (TGF-β3) (UniProt P10600 301-412)
T1 construct: also called TGFb3; TGFB3
T1 sequence (looked up): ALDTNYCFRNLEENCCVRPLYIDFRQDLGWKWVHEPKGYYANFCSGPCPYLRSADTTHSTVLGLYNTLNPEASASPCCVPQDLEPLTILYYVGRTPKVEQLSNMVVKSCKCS
Method: (§1) Biotinylated synthetic peptide fragments from CLPTM1 (JPT peptides, Germany) were immobilized in a streptavidin 96 well plate (#15500 Pierce) at 1 μM in PBS over night at +4° C. Plate was then washed 4 times in 300 μl PBS with 0.05% tween-20 (wash buffer). The plate was then blocked with PBS 1% BSA and 0.05% tween-20 (blocking buffer) for 1.5 hours at room temperature, then washed 4 times in wash buffer. Ligands GDF15, TGFb1, TGFb2 and TGFb3 (Abcam) were added in blocking buffer at 100 ng/ml and incubated at room temperature for 2 hours. The plate was then washed 8 times in 300 μL wash buffer with 2× NaCl. An anti-GDF15 antibody was added at 1 μg/ml (R&D Systems, goat polyclonal) or a pan-specific anti-TGFb antibody (R&D Systems, mouse 1 D11), and the plate incubated in blocking buffer for 1 hour at room temperature followed by washing with 4×300 μl wash buffer. HAF017 anti-goat-HRP antibody (to detect the anti-GDF15 antibody) or Santa Cruz sc-2005 Goat anti-mouse-HRP (to detect the pan-specific anti-TGFb antibody) was added and the plate incubated for 1 hour in blocking buffer followed by a wash. TMB substrate was added and stopped after 15 minutes with H₂SO₄. OD 450-620 was measured in an ELISA reader.

[2] = target: T2, transforming growth factor-beta 2 (TGF-β2) (UniProt P61812 303-414)
T2 construct: also called TGFb2; TGFB2
T2 sequence (looked up): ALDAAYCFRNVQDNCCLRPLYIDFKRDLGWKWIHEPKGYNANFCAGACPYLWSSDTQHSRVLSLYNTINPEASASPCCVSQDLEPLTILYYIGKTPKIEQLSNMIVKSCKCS
Method: as §1

[3] = target: T3, transforming growth factor-beta 1 (TGF-β1) (UniProt P01137 279-390)
T3 construct: also called TGFb1; TGFB1
Method: as §1

[4] = target: T4, Growth and Differentiation Factor 15 (GDF15) (UniProt Q99988 197-308, limits assumed)
T4 construct: also called MIC-1; MIC1
T4 sequence (looked up): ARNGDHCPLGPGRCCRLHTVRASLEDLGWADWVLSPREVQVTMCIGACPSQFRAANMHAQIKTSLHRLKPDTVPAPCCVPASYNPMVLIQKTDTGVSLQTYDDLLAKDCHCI
Method: as §1

T3 sequence (P01137 279-390 limits assumed): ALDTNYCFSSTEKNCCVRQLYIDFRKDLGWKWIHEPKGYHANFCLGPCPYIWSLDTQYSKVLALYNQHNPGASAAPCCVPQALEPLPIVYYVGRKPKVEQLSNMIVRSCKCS

ELISA OD450 [1]: 0.025 OD450 | ELISA OD450 [2]: 0.005 OD450 | ELISA OD450 [3]: 0.017 OD450 | ELISA OD450 [4]: 0.038 OD450
Binder: NDYWNLQKDYYPINESLASLG (also: biotinylated, site not given here) [CLPTM1 peptide fragment of SEQ ID NO: 22]

ELISA OD450 [1]: 0.095 OD450 | ELISA OD450 [2]: 0.838 OD450 | ELISA OD450 [3]: 1.64 OD450 | ELISA OD450 [4]: 0.174 OD450
Binder: DTLMNLHVYISEHEHFTDFNATSALFWEQHDLVYGDWTSG (also: biotinylated, site not given here, also called peptide 29; GT5) [CLPTM1 peptide fragment of SEQ ID NO: 36]

ELISA OD450 [1]: 0.003 OD450 | ELISA OD450 [2]: 0.123 OD450 | ELISA OD450 [3]: 0.058 OD450 | ELISA OD450 [4]: 0.016 OD450
Binder: ARSAVVAAGGGSSGQVTSNGSIGRDPPAETQPQNPPAQPA (also: biotinylated, site not given here, also called peptide 27; GT3) [CLPTM1 peptide fragment of SEQ ID NO: 34]

ELISA OD450 [1]: 0.065 OD450 | ELISA OD450 [2]: 0.019 OD450 | ELISA OD450 [3]: 0.152 OD450 | ELISA OD450 [4]: 0.14 OD450
Binder: LDQYVKFDAVSGDYYPIIYFG (also: biotinylated, site not given here, also called peptide 14) [CLPTM1 peptide fragment of SEQ ID NO: 21]

ELISA OD450 [1]: 0.091 OD450 | ELISA OD450 [2]: 0.717 OD450 | ELISA OD450 [3]: 1.01 OD450 | ELISA OD450 [4]: 0.383 OD450
Binder: VSGDYYPIIYFNDYWNLQKDYYPINESLASLPLRVSFC (also: biotinylated, site not given here, also called peptide 31; GT7) [CLPTM1 peptide fragment of SEQ ID NO: 38]

ELISA OD450 [1]: 0.074 OD450 | ELISA OD450 [2]: 0.91 OD450 | ELISA OD450 [3]: 1.86 OD450 | ELISA OD450 [4]: 0.137 OD450
Binder: PLDQYVKFDAVSGDYYPIIYFNDYWNLQKDYYPINESLA (also: biotinylated, site not given here, also called peptide 32; GT8) [CLPTM1 peptide fragment of SEQ ID NO: 39]

ELISA OD450 [1]: 0.016 OD450 | ELISA OD450 [2]: 0.066 OD450 | ELISA OD450 [3]: 0.083 OD450 | ELISA OD450 [4]: 0.063 OD450
Binder: PLRVSFCPLSLWRWQLYAAQG (also: biotinylated, site not given here) [CLPTM1 peptide fragment of SEQ ID NO: 23]

ELISA OD450 [1]: 0.012 OD450 | ELISA OD450 [2]: 0.007 OD450 | ELISA OD450 [3]: 0.018 OD450 | ELISA OD450 [4]: 0.053 OD450
Binder: STKSPWNFLGDELYEQSDEEG (also: biotinylated, site not given here) [CLPTM1 peptide fragment of SEQ ID NO: 24]

ELISA OD450 [1]: 0.068 OD450 | ELISA OD450 [2]: 0.005 OD450 | ELISA OD450 [3]: 0.011 OD450 | ELISA OD450 [4]: 0.098 OD450
Binder: ITINIVDDHTPWVKGSVPPPG (also: biotinylated, site not given here) [CLPTM1 peptide fragment of SEQ ID NO: 20]

ELISA OD450 [1]: 0.004 OD450 | ELISA OD450 [2]: 0.002 OD450 | ELISA OD450 [3]: 0.006 OD450 | ELISA OD450 [4]: 0.028 OD450
Binder: MIKRAEDYGPVEVISHWHPNG (also: biotinylated, site not given here) [CLPTM1 peptide fragment of SEQ ID NO: 19]

ELISA OD450 [1]: 0.007 OD450 | ELISA OD450 [2]: 0.009 OD450 | ELISA OD450 [3]: 0.177 OD450 | ELISA OD450 [4]: 0.021 OD450
Binder: LWRWQLYAAQSTKSPWNFLGDELYEQSDEEQDSVKVALLETNP (also: biotinylated, site not given here, also called peptide 26; GT2) [CLPTM1 peptide fragment of SEQ ID NO: 33]

ELISA OD450 [1]: 0.027 OD450 | ELISA OD450 [2]: 0.031 OD450 | ELISA OD450 [3]: 0.098 OD450 | ELISA OD450 [4]: 0.029 OD450
Binder: NAWQVIKGVLFRIFIIWAISSWFRRGPAPQDQAGPGGA (also: biotinylated, site not given here, also called peptide 28; GT4) [CLPTM1 peptide fragment of SEQ ID NO: 35]

ELISA OD450 [1]: 0.399 OD450 | ELISA OD450 [2]: 2.09 OD450 | ELISA OD450 [3]: 2.81 OD450 | ELISA OD450 [4]: 0.518 OD450
Binder: SGDYYPIIYFNDYWNLQKDYYPINESLA (also: biotinylated, site not given here, also called peptide 33; GT9) [CLPTM1 peptide fragment of SEQ ID NO: 40]

ELISA OD450 [1]: 0.014 OD450 | ELISA OD450 [2]: 0.007 OD450 | ELISA OD450 [3]: 0.01 OD450 | ELISA OD450 [4]: 0.022 OD450
Binder: YEQSDEEQDSVKVALLETNPG (also: biotinylated, site not given here) [CLPTM1 peptide fragment of SEQ ID NO: 25]

ELISA OD450 [1]: 0.3 OD450 | ELISA OD450 [2]: 1.63 OD450 | ELISA OD450 [3]: 2.1 OD450 | ELISA OD450 [4]: 0.779 OD450
Binder: SGDYYPIIYFNDYWNLQKDYYPINESLASLPLRVSFCPLS (also: biotinylated, site not given here, also called peptide 25; GT1) [CLPTM1 peptide fragment of SEQ ID NO: 32]

ELISA OD450 [1]: 0.613 OD450 | ELISA OD450 [2]: 0.483 OD450 | ELISA OD450 [3]: 0.389 OD450 | ELISA OD450 [4]: 0.209 OD450
Binder: TKSGFHPDPRQKALYRRLATVHMSRMINKYKRRRFQKTKN (also: biotinylated, site not given here, also called peptide 30; GT6) [CLPTM1 peptide fragment of SEQ ID NO: 37]

More lines, now with the values behind:

Binder: QNPPAQPAPNAWQVIKGVLFG (also: biotinylated, site not given here) [CLPTM1 peptide fragment of SEQ ID NO: 10]
ELISA OD450 [1]: 0.006 OD450 | ELISA OD450 [2]: 0.013 OD450 | ELISA OD450 [3]: 0.026 OD450 | ELISA OD450 [4]: 0.042 OD450

Binder: SDGCYEHFAELDIPQSVQQNG (also: biotinylated, site not given here) [CLPTM1 peptide fragment of SEQ ID NO: 15]
ELISA OD450 [1]: 0.004 OD450 | ELISA OD450 [2]: -0.003 OD450 | ELISA OD450 [3]: 0.006 OD450 | ELISA OD450 [4]: 0.024 OD450

Binder: LMNLHVYISEHEHFTDFNATG (also: biotinylated, site not given here) [CLPTM1 peptide fragment of SEQ ID NO: 13]
ELISA OD450 [1]: 0.014 OD450 | ELISA OD450 [2]: 0.005 OD450 | ELISA OD450 [3]: 0.02 OD450 | ELISA OD450 [4]: 0.058 OD450

Binder: SGQVTSNGSIGRDPPAETQPG (also: biotinylated, site not given here) [CLPTM1 peptide fragment of SEQ ID NO: 9]
ELISA OD450 [1]: 0.001 OD450 | ELISA OD450 [2]: 0.001 OD450 | ELISA OD450 [3]: 0.002 OD450 | ELISA OD450 [4]: 0.009 OD450

Binder: GSIYIHVYFTKSGFHPDPRQG (also: biotinylated, site not given here) [CLPTM1 peptide fragment of SEQ ID NO: 16]
ELISA OD450 [1]: 0.02 OD450 | ELISA OD450 [2]: 0.107 OD450 | ELISA OD450 [3]: 0.122 OD450 | ELISA OD450 [4]: 0.149 OD450

Binder: SALFWEQHDLVYGDWTSGENG (also: biotinylated, site not given here) [CLPTM1 peptide fragment of SEQ ID NO: 14]
ELISA OD450 [1]: 0.02 OD450 | ELISA OD450 [2]: 0.002 OD450 | ELISA OD450 [3]: 0.022 OD450 | ELISA OD450 [4]: 0.034 OD450

Binder: AAAQEADGARSAVVAAGGGSG (also: biotinylated, site not given here) [CLPTM1 peptide fragment of SEQ ID NO: 8]
ELISA OD450 [1]: 0.015 OD450 | ELISA OD450 [2]: 0.01 OD450 | ELISA OD450 [3]: 0.012 OD450 | ELISA OD450 [4]: 0.022 OD450

Binder: RRRFQKTKNLLTGETEADPEG (also: biotinylated, site not given here) [CLPTM1 peptide fragment of SEQ ID NO: 18]
ELISA OD450 [1]: 0.004 OD450 | ELISA OD450 [2]: 0.002 OD450 | ELISA OD450 [3]: 0.002 OD450 | ELISA OD450 [4]: 0.021 OD450

Binder: KALYRRLATVHMSRMINKYKG (also: biotinylated, site not given here, also called peptide 10) [CLPTM1 peptide fragment of SEQ ID NO: 17]
ELISA OD450 [1]: 0.046 OD450 | ELISA OD450 [2]: 1.01 OD450 | ELISA OD450 [3]: 0.913 OD450 | ELISA OD450 [4]: 0.197 OD450

Binder: RIFIIWAISSWFRRGPAPQDG (also: biotinylated, site not given here) [CLPTM1 peptide fragment of SEQ ID NO: 11]
ELISA OD450 [1]: 0.003 OD450 | ELISA OD450 [2]: -0.003 OD450 | ELISA OD450 [3]: 0.008 OD450 | ELISA OD450 [4]: 0.026 OD450

Binder: QAGPGGAPRVASRNLFPKDTG (also: biotinylated, site not given here) [CLPTM1 peptide fragment of SEQ ID NO: 12]
ELISA OD450 [1]: 0.004 OD450 | ELISA OD450 [2]: -0.006 OD450 | ELISA OD450 [3]: 0.003 OD450 | ELISA OD450 [4]: 0.034 OD450
